How the values were obtained:
[1] = target: thyroid-stimulating hormone (TSH) receptor (human) (UniProt P16473); assay: flow cytometry, human PBMC gated on CD4+ CD45RA- memory CD4+ T cells; CGH-biotin 10 ug/ml then streptavidin-PE; background without CGH-biotin 3.4
[2] = target: thyroid-stimulating hormone (TSH) receptor (human) (UniProt P16473); assay: flow cytometry, human PBMC gated on CD4+ CD45RA+ naive CD4+ T cells; CGH-biotin 10 ug/ml then streptavidin-PE; background without CGH-biotin 3.5
[3] = target: thyroid-stimulating hormone (TSH) receptor (human) (UniProt P16473); assay: flow cytometry, human PBMC gated on CD56+ NK cells; CGH-biotin 10 ug/ml then streptavidin-PE; background without CGH-biotin 3.6
[4] = target: thyroid-stimulating hormone (TSH) receptor (human) (UniProt P16473); assay: flow cytometry, human PBMC gated on CD19+ B cells; CGH-biotin 10 ug/ml then streptavidin-PE; background without CGH-biotin 3.8
[5] = target: thyroid-stimulating hormone (TSH) receptor (human) (UniProt P16473); assay: flow cytometry, human PBMC gated on CD14+ monocytes; CGH-biotin 10 ug/ml then streptavidin-PE; background without CGH-biotin 9.1
[6] = target: thyroid-stimulating hormone (TSH) receptor (human) (UniProt P16473); assay: flow cytometry, human PBMC gated on CD3+ T cells; CGH-biotin 10 ug/ml then streptavidin-PE; background without CGH-biotin 4.3
[7] = target: thyroid-stimulating hormone (TSH) receptor (human), P16473; assay: cell-based or functional assay
[8] = target: T1, glycoprotein hormone beta 5 (GPHB5) (human, UniProt Q86YW7 25-130, one N-linked glycosylation (site not stated)); assay: co-expression in CHO cells (Example 5)
T1 construct: Subunit co-expressed with GPHA2 in CHO cells; also called beta subunit of CGH
T1 sequence: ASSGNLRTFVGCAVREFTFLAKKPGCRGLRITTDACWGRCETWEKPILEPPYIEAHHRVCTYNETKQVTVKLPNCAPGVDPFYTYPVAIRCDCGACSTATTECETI

[9] = system: LPS-induced mild endotoxemia mouse model; assay: LPS-induced mild endotoxemia mouse model, serum cytokines by ELISA; assay type: in vivo, C57B1/6 mice; settings: for effect on serum IL-6 levels / effect on serum TNFα levels: 2 mg/kg of the monomer, data not shown
Procedure: An in vivo experiment was designed to examine the effect of CGH in a mouse model of LPS-induced mild endotoxemia. This model mimics acute endotoxemia/sepsis by challenging mice with a low, non-lethal dose of bacterial endotoxin (lipopolysaccharide, LPS). Serum is collected at various timepoints (1-8 hours) after intraperitoneal LPS injection and analyzed for altered expression of a wide variety of pro- and anti-inflammatory cytokines and acute phase proteins that mediate the inflammatory response. The model provides a means to assess the potential anti-inflammatory effects of therapeutic candidates during a robust inflammatory response. To initially assess the model, we measured proinflammatory cytokines in a pilot experiment to collect reference data for the model.
C57B1/6 mice (Charles River Laboratories; 5 mice/group) were treated i.p. with PBS, 0.2 mg/kg CGH in PBS, or 2 mg/kg CGH in PBS 1 hour prior to LPS challenge. The mice were then challenged with 25 ug of LPS i.p. and bled at 1 hour and 4 hours after LPS injection. Serum was analyzed for TNFα (1 hour) and IL-6 (4 hours) levels by ELISA.
To determine if CGH would potentiate the effect of a sub-maximal dose of glucocorticoid, groups of 10 C57B1/6 mice each were treated i.p. with PBS, 0.15 or 1.5 mg/kg Dex, 2 mg/kg CGH, or a combination of CGH and low or high doses of Dex, 1 hour prior to injection of 25 ug LPS i.p. As shown in TABLE 3 (Expt #2), either 2 mg/kg CGH or 1.5 mg/kg Dex treatment alone (1 hour prior to LPS) caused a significant drop in serum TNFα levels at 1 hour, as observed in previous experiments. The effects of CGH administered in conjunction with Dex on inhibition of TNFα production were greater than either dose of Dex alone.

[10] = system: NCI-H295R; assay: CRE-luciferase reporter assay of cAMP-mediated gene induction in adrenal cortex cells; assay type: cell-based, human; settings: purified CGH heterodimer
Excerpt: Summary: A human adrenal cortex cell line, NCI-H295R, was used to study signal transduction of CGH. NCI-H295R was transduced with recombinant adenovirus containing a reporter construct, a firefly luciferase gene under the control of cAMP response element (CRE) enhancer sequences. This assay system detects cAMP-mediated gene induction downstream of activation of Gs-coupled GPCR's (G-protein coupled receptors). […] Typically, CGH elicited a maximal response of 15-40-fold luciferase induction above control media.
NCI-H295R cells were obtained from the ATCC (CRL-2128, Manassas, Va.) and cultured in growth medium as follows: 1:1 mixture of Dulbecco's modified Eagle's medium and Ham's F12 medium with L-glutamine (D-MEM/F-12; GIBCO, cat.# 11320-033) containing 25 mM HEPES buffer (GIBCO, Invitrogen, Carlsbad, Calif., cat.# 15630-080), 1 mM sodium pyruvate (GIBCO, cat.# 11360-070), 1% ITS+1 media supplement (Sigma St. Louis, Mo. cat# 12521) and 2.5% Nu-Serum I (BD Biosciences, Lexington, Ky. cat.#355100). Cells were cultured at 37° C. in a 5% CO2 humidified incubator. […]
Promega's Luciferase Assay System (Promega, Madison, Wis., cat. # E1500) was used to process the treated cells. […] Luciferase activity was measured on a microplate luminometer (PerkinElmer Life Sciences, Inc., model LB 96V2R) following automated injection of luciferase assay substrate.

[11] = target: T2, TSHR (Homo sapiens, UniProt P16473); assay: Release of free fatty acids (FFA) from adipose cells; assay type: cell-based
T2 construct: In adipose cells, sub-nanomolar levels of CGH stimulate release of free fatty acids (FFA); endogenous in cells

[12] = system: neutrophils infiltrating the ears; assay: Neutrophil infiltration in ears of DTH mice, anti-Gr-1 immunohistochemistry and histomorphometry; assay type: in vivo, C57B1/6 mice; settings: anti-Gr-1 staining, DTH experiment #1
Procedure: Ears from mice in DTH experiment #1 were analyzed by immunohistochemistry to assess which cell types were most affected by CGH treatment. Ears were fixed in Zinc/Tris buffer (2.3 mM calcium acetate/31.6 mM zinc acetate/36.7 mM zinc chloride in 0.1M Tris-HCL buffer, pH 7.4) for 24 hours at room temperature and stained with antibodies specific for CD4, CD8, CD11c, and Gr-1 (neutrophils). […] Ears were stained using a TechMate 500 autoimmunostainer (Biotech/Ventana) MIP protocol with some modifications. After drying the slides for 1 hour at 60° C., the sections were stained with a rat anti-mouse Gr-1 mAb (clone 7/4, Serotec, isotype rat IgG2a, used at 1.25 ug/ml final dilution), overnight at 4° C. This step was followed, after a wash, by biotinylated rabbit anti-rat IgG secondary antibody (Dako, used at 10 ug/ml in PBS with 2% normal rabbit serum and 2% nonfat dry milk) for 45 min. The sections were then washed and treated with HP Block (1.5% H2O2 in 50% methanol) 3 times, 7 min each, followed by 25 min in avidin-biotin complex, 3 times of 4 min each in DAB (Diaminobenzidine), then with Methyl green for 10 min.
Histomorphometry was performed to obtain the average pixel density of neutrophils per unit length (1 mm) present in the ear samples. […]

[13] = system: adrenal cortex; assay: Adenoviral overexpression of CGH in mice, adrenal gland histopathology; assay type: in vivo, C57BL6 mice; settings: GPHA2- and GPHB5-expressing adenovirus by tail vein, day 20, all eight mice
Excerpt: Summary: Mice were exposed to CGH through infection with adenovirus particles expressing GPHA2 and GPHB5, leading to overexpression and secretion of CGH from the liver of these animals. […] The hypertrophy was apparent in the inner cortical layers, the zona fasciculata and the zona reticularis. Similarly, mice were exposed to CGH through intraperitoneal injection of recombinant CGH protein alone, recombinant CGH protein along with the glucocorticoid Dexamethasone (Dex), Dex alone, or PBS alone daily for two weeks.
Each group consisted of eight female C57BL6 mice. 7.5×10^11 particles each of GPHA2- and GPHB5-expressing adenovirus were administered by tail vein injection to the experimental group, while 1.5×10^11 particles of adenovirus expressing a parental vector alone were administered to the control group. Animals were sacrificed on day 20 following the injection and tissues were evaluated by a pathologist.

[14] = system: thymus; parameters: species or system C57B1/6 mice; settings: mouse, in vivo
Excerpt: Since the receptor for CGH, TSH-R, is expressed by the adrenal glands, there was concern that the anti-inflammatory effects observed might be an indirect effect of increasing endogenous corticosteroid production in CGH-treated mice. One well-established side effect of increasing either exogenous or endogenous corticosteroid levels is substantial atrophy of the thymus, as the developing T cells are induced to undergo apoptosis. Therefore, the thymuses of the CGH and Dex-treated mice in the DTH experiments were analyzed. […] Thus, CGH seems to be mediating its anti-inflammatory effects in a manner distinct from that of exgenous glucocorticoids like Dex.

[15] = 2 mg/kg CGH 1 hour prior to LPS, Expt #1

Sequence of thyroid-stimulating hormone (TSH) receptor (human) (P16473 21-764): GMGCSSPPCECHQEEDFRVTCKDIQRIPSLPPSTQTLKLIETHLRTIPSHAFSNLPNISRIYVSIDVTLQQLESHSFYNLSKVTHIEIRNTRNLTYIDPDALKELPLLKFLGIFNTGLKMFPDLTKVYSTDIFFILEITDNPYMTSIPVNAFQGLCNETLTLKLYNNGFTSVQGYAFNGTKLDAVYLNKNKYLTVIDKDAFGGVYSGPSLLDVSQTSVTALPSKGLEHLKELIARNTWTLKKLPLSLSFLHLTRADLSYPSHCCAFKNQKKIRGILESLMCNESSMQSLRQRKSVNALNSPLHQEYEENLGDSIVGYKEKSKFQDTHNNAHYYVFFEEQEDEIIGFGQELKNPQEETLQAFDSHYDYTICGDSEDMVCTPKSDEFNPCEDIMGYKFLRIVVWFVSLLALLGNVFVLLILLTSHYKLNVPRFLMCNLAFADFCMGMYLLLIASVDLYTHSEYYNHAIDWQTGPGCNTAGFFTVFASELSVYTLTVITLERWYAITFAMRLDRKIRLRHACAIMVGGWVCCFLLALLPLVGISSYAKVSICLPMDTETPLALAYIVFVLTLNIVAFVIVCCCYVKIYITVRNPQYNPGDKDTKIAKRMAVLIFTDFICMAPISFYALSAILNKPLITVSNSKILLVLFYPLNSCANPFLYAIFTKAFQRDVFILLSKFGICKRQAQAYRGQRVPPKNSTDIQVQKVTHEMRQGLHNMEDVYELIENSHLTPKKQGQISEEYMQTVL
Sequence of thyroid-stimulating hormone (TSH) receptor (human), P16473 (P16473 21-764): as above
T2 sequence (P16473 21-764, species assumed): as the sequence (P16473 21-764) above

Molecule: CGH-biotin (biotinylated corticotroph-derived glycoprotein hormone) (from UniProt Q96T91 24-129; Q86YW7 25-130) (ligand)
- FL-2 MFI [1]: 8.7 MFI
- FL-2 MFI [2]: 4.9 MFI
- FL-2 MFI [3]: 11.9 MFI
- FL-2 MFI [4]: 12.9 MFI
- FL-2 MFI [5]: 56.4 MFI
- FL-2 MFI [6]: 9.1 MFI

B1: Corticotroph-derived glycoprotein hormone (CGH), purified recombinant heterodimer, Q96T91 24-129; Q86YW7 25-130 (ligand)
chain 1: QEAVIPGCHLHPFNVTVRSDRQGTCQGSHVAQACVGHCESSAFPSRYSVLVASGYRHNITSVSQCCTISGLKKVKVQLQCVGSRREELEIFTARACQCDMCRLSRY
chain 2: T1 sequence
modifications: here or on the partner: one N-linked glycosylation on the GPHB5 subunit (site not stated); two N-linked glycosylations on the GPHA2 subunit (sites not given)
- CRE-driven luciferase reporter induction (cAMP-mediated) in NCI-H295R human adrenal cortex cells [7]: 15 to 40 fold

B2: glycoprotein hormone alpha2 (GPHA2) (ligand)
chain: B1 chain 1
modifications: two N-linked glycosylations (sites not given)
notes: Subunit co-expressed with GPHB5 in CHO cells; also called Zsig51; zsig51
- binding result [8]: binds

B3: zsig51: alpha subunit of CGH, glycoprotein hormone alpha2, previously called Zsig51; tested as monomer (protein)
chain: B1 chain 1
- effect on serum IL-6 levels [9]: neither of these monomers had any effect
- effect on serum TNFα levels [9]: neither of these monomers had any effect

B4: CGH: heterodimeric protein hormone of alpha subunit GPHA2 (SEQ ID NO:3) and beta subunit GPHB5 (SEQ ID NO:6) (protein, listed as Homo sapiens)
alpha: B1 chain 1
beta: T1 sequence
- dose-dependent induction of luciferase activity compared with 10 μM forskolin [10]: equal to or higher than that induced by 10 μM forskolin
- increase of serum IL-6 levels at the 4 hour time point [9, 15]: about 70%
- reduction of the TNFα induction at the 1 hour time point [9, 15]: about 60%
- levels that stimulate release of free fatty acids (FFA) [11]: sub-nanomolar
- molar concentration stimulating release of FFA, lower compared to TSH ([11]; compared to TSH): 10 fold
- number of neutrophils infiltrating the ears compared to the PBS-treated controls [12]: clear reduction
- histomorphological changes of the inner adrenal cortical cells [13]: profound hypertrophy and uniformly finely, foamy vacuolization
- relative proportion of each thymocyte subset compared with the PBS-treated group [14]: not significantly different

B5: zlut1: monomer of CGH tested alone; not defined further, presumably the GPHB5 beta subunit (protein, UniProt Q86YW7 25-130, looked up)
Glycoprotein hormone beta-5: T1 sequence
- effect on serum IL-6 levels [9]: neither of these monomers had any effect
- effect on serum TNFα levels [9]: neither of these monomers had any effect
